# ± gives the standard deviation of the averaged measurements.
# B1: library; a variant is named by its letters at N, in order (parent)
# chain: GCUGUCACCGGUGUAUUACCCUAGUGGUCGACCGGUCUGAUGAGUCUNNNNNNAGACGAAACAGC
# How the values were obtained:
# hypoxanthine [1] = variants of: B1; test: normalized RNA/DNA level with ligand (relative to sTRSVctl = 100) (log10 (% of sTRSVctl)); ligand: hypoxanthine (xanthine aptamer); higher = less ribozyme self-cleavage, higher mRNA level; details: ligand concentration (+) RNA-Seq: 5 mM, HEK293T, reporter: mCherry (pCS4076), ligand present: yes
# In short: (§1)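 Library plasmids carrying ribozyme switches linked to mCherry, or to eGFP in some ligand experiments, were transfected into HEK293T at 4 µg per 6-well well, with any ligand added 1 h earlier. Seventy-two hours on, total RNA was extracted with EDTA and reverse-transcribed, amplified, barcoded and sequenced. RNA level was RNA over DNA reads normalized to a spiked-in non-cleaving sequence or to the top sequences, then scaled and log-transformed. The top set was 25 sequences, the transform was ×100 and log10, and sequences needed ≥100 DNA reads.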
# hypoxanthine [2] = variants of: B1; test: normalized RNA/DNA level without ligand (relative to sTRSVctl = 100) (log10 (% of sTRSVctl)); ligand: hypoxanthine (xanthine aptamer); higher = less ribozyme self-cleavage, higher mRNA level; details: HEK293T, reporter: mCherry (pCS4076), ligand present: no
# In short: as §1
# hypoxanthine [3] = variants of: B1; test: FACS-Seq fitted mean relative fluorescence mCherry/BFP without ligand (log10 relative fluorescence); ligand: hypoxanthine (xanthine aptamer); higher = higher reporter protein expression; details: HEK293T, ligand present: no
# In short: (§2)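 Sorting into 6 bins by mCherry/BFP followed 48 h of incubation with or without ligand. The cells were enriched HEK293T libraries lentivirally bearing an mCherry reporter with the ribozyme switch and an EF1α-BFP marker, and bin genomic DNA was PCR-amplified, barcoded and sequenced on MiSeq. Fluorescence is the fitted normal mean of the bin counts. Means were fitted on log10(mCherry/BFP), scaled to five spiked-in control ribozymes.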
# hypoxanthine [4] = variants of: B1; test: FACS-Seq fitted mean relative fluorescence mCherry/BFP with ligand (log10 relative fluorescence); ligand: hypoxanthine (xanthine aptamer); ligand concentration (+) FACS-Seq: 5 mM; higher = higher reporter protein expression; details: HEK293T, ligand present: yes
# In short: as §2
Variant,normalized RNA/DNA level with ligand (log10) (hypoxanthine [1]),normalized RNA/DNA level without ligand (log10) (hypoxanthine [2]),FACS-Seq fitted mean (log10) (hypoxanthine [3]),FACS-Seq fitted mean (log10) (hypoxanthine [4])
GCUGUCACCGGUGUAUUACCCUAGUGGUCGACCGGUCUGAUGAGUCUCAAACGAGACGAAACAGC [CAAACG],1.906 ± 0.0079,1.87 ± 0.06,–,–
GCUGUCACCGGUGUAUUACCCUAGUGGUCGACCGGUCUGAUGAGUCUCAAACUAGACGAAACAGC [CAAACU],1.94 ± 0.039,1.9 ± 0.035,–,–
GCUGUCACCGGUGUAUUACCCUAGUGGUCGACCGGUCUGAUGAGUCUCAAACAAGACGAAACAGC [CAAACA],1.93 ± 0.061,1.75 ± 0.039,–,–
GCUGUCACCGGUGUAUUACCCUAGUGGUCGACCGGUCUGAUGAGUCUCUUUUAAGACGAAACAGC [CUUUUA],1.92 ± 0.051,1.77 ± 0.043,0.647 ± 0.044,0.318 ± 0.12
GCUGUCACCGGUGUAUUACCCUAGUGGUCGACCGGUCUGAUGAGUCUCAAAGCAGACGAAACAGC [CAAAGC],1.956 ± 0.01,1.77 ± 0.021,–,–
GCUGUCACCGGUGUAUUACCCUAGUGGUCGACCGGUCUGAUGAGUCUCAAAGGAGACGAAACAGC [CAAAGG],1.751 ± 0.005,1.26 ± 0.062,–,–
GCUGUCACCGGUGUAUUACCCUAGUGGUCGACCGGUCUGAUGAGUCUCAAAGAAGACGAAACAGC [CAAAGA],1.93 ± 0.03,1.768 ± 0.0019,–,–
GCUGUCACCGGUGUAUUACCCUAGUGGUCGACCGGUCUGAUGAGUCUUAAACUAGACGAAACAGC [UAAACU],1.94 ± 0.039,1.87 ± 0.034,–,–
GCUGUCACCGGUGUAUUACCCUAGUGGUCGACCGGUCUGAUGAGUCUUAAACAAGACGAAACAGC [UAAACA],1.913 ± 0.017,1.875 ± 0.015,–,–
GCUGUCACCGGUGUAUUACCCUAGUGGUCGACCGGUCUGAUGAGUCUUAAACCAGACGAAACAGC [UAAACC],1.955 ± 0.016,1.91 ± 0.0052,–,–
GCUGUCACCGGUGUAUUACCCUAGUGGUCGACCGGUCUGAUGAGUCUUAAACGAGACGAAACAGC [UAAACG],1.9 ± 0.087,1.71 ± 0.036,–,–
GCUGUCACCGGUGUAUUACCCUAGUGGUCGACCGGUCUGAUGAGUCUUAAAUCAGACGAAACAGC [UAAAUC],1.93 ± 0.044,1.97 ± 0.028,–,–
GCUGUCACCGGUGUAUUACCCUAGUGGUCGACCGGUCUGAUGAGUCUGUUUUUAGACGAAACAGC [GUUUUU],1.941 ± 0.0034,1.93 ± 0.05,0.142 ± 0.041,0.1 ± 0.015
GCUGUCACCGGUGUAUUACCCUAGUGGUCGACCGGUCUGAUGAGUCUGUUUUGAGACGAAACAGC [GUUUUG],1.9 ± 0.084,1.567 ± 0.002,0.498 ± 0.038,0.551 ± 0.047
GCUGUCACCGGUGUAUUACCCUAGUGGUCGACCGGUCUGAUGAGUCUGUUUUCAGACGAAACAGC [GUUUUC],1.92 ± 0.025,1.952 ± 0.01,-0.0599 ± 0.0079,-0.0383 ± 0.14
GCUGUCACCGGUGUAUUACCCUAGUGGUCGACCGGUCUGAUGAGUCUAAAAGCAGACGAAACAGC [AAAAGC],1.9 ± 0.027,1.77 ± 0.042,–,–
GCUGUCACCGGUGUAUUACCCUAGUGGUCGACCGGUCUGAUGAGUCUUAACACAGACGAAACAGC [UAACAC],1.91 ± 0.05,1.7 ± 0.053,–,–

# Source: the supplement of paper PMC6757056
